Molecular target: Drosophila melanogaster cystathionine β-synthase (Drosophila melanogaster)
Test: native gel or EMSA

Substance: Drosophila melanogaster cystathionine β-synthase (enzyme)
- stoichiometry N: 2

From PMC3751582
